Here are results for one molecule from patent US6946588B2, “Nucleic acid encoding a modified threonine deaminase and methods of use” (Monsanto Technology LLC, priority 1996, dated 2005).

In data set [1] the test system is A. eutrophus PhbA and BktB β-ketothiolases. Description: β-Ketothiolase condensation assay with 1-14C-acetyl-CoA (PhbA, BktB). The format is biochemical. Conditions: 0.30 mM acetyl-CoA. The source says: As noted above, A. eutrophus can produce P(3HB-co-3HV) copolymer when provided with an appropriate C5 precursor. […] One of these β-ketothiolases, designated BktB herein, was encoded on plasmid pBK6. A. eutrophus BktB was obtained from E. coli DH5α transformed with plasmid pMON25754. pMON25754 was produced from the A. eutrophus pBK6 clone (Slater et al., 1988) by deleting a 5.0 kb XhoI fragment (there is an additional XhoI site approximately 5.0 kb 5′ to the XhoI site shown in FIG. 1 of Slater et al.). The pBK6 clone was produced by Slater et al. (1988) from A. eutrophus H16, i.e., ATCC accession number 17699, which is publicly available from the American Type Culture Collection, 12301 Parklawn Drive, Rockville, Md. 20852. BktB was overexpressed from its native promoter on the high copy plasmid pMON25754 by growing the cells overnight at 37° C. to stationary phase in LB broth containing ampicillin (100 μg/ml). A. eutrophus PhbA was obtained from E. coli DH5α transformed with pMON25636 (FIG. 20) by growing the cells at 37° C. in LB broth containing ampicillin (100 μg/ml) to early log phase and then inducing with IPTG. Cells were harvested after two hours of further growth.
The activity of β-ketothiolases can be assayed in both the condensation and thiolysis directions. However, condensation activity for products that are the result of a mixed condensation of acetyl-CoA and a longer chain acyl-CoA are difficult to measure. This is due to the difficulty in distinguishing between acetoacetyl-CoA, the product of condensing two acetyl-CoA molecules, and the mixed condensation reaction product, both of which form simultaneously. To date, condensation assays have been spectrophotometrically-based, but these are valid only when there is a single acyl-CoA substrate present (i.e., acetyl-CoA) since they cannot discriminate between the products formed. The assay described below represents the first reported assay that permits complete quantitation of all condensation products regardless of the nature of starting substrates.
β-ketothiolase assays designed to measure the condensation activity with acetyl-CoA plus either propionyl-CoA or butyryl-CoA were performed using 1-^14C-labelled acetyl-CoA. Since the equilibrium for the reaction lies heavily toward the starting acyl-CoAs rather than the condensed β-ketoacyl-CoA product, the latter was “pulled” to the corresponding β-hydroxyacyl-CoA using NADH and β-ketoacyl-CoA dehydrogenase. In addition, to avoid the strong feedback inhibition of β-ketothiolase by free CoA, each assay solution contained 5,5′-dithio-bis(2-nitrobenzoic acid) (DTNB) to trap chemically the free CoA produced by the reaction.
The condensation assay mixture (0.5 ml final volume) contained 100 mM KPi, pH 7.8, 0.5 mM NADH, 0.30 mM 1-^14C-acetyl-CoA (0.15 μCi), 5 units β-ketoacyl-CoA dehydrogenase, 0.5 mM DTNB, and variable propionyl- or butyryl-CoA as indicated in Table 5. The reaction was initiated by the addition of β-ketothiolase. Following 20 minutes at 30° C., each reaction mixture was quenched by the addition of 25 μl of 10% formic acid. Thirty μl of 25% H2SO4 were added to 200 μl of quenched reaction mix; this mixture was then incubated at 70° C. for 24 hours to hydrolyze all CoA thioesters to their free acids. Sixty μl of 5 M sodium formate were added to the sample to neutralize the pH, followed by analysis of a 130 μl aliquot using C18-reverse-phase HPLC (0.5×25 cm column). Detection and quantitation were carried out by monitoring flow-through with a Radiomatic flow detector. A gradient elution was employed using aqueous 1% acetic acid (solvent A) and acetonitrile (solvent B). […]

Data set [2] relates to E. coli DH5α cells. Description: PHA production by transformed E. coli DH5α on glucose and propionate (GC analysis). The format is cell-based. Conditions: Set 2 versus Set 1. The method, then:
E. coli DH5α cells contining both sets of plasmids expressing all of the required PHA biosynthesis enzymes were grown on 50 ml of LB broth containing all three antibiotics supplemented with 0.75% glucose and 0.15% propionate. The tac promoters were induced with IPTG at a final concentration of 0.5 mM. Nalidixic acid was added to a final concentration of 60 μg/ml. The cells were grown under antibiotic selection (see above) for 24 hours and assayed for the presence of PHA polymer. Cells were centrifuged at 7,000 rpm for 20 min., washed with 25 ml methanol, recentrifuged, washed with 15 ml hexane, and recentrifuged. Cell pellets were dried under N2 for two hours, and the dry cell weights determined. 6.5 ml of chloroform were added to extract the PHA at 100° C. for one hour. The solution was cooled and filtered through a PTFE syringe filter (13 mm diameter, 0.45 μm pore). The PHA was precipitated by the addition of 50 ml of methanol, centrifuged, and washed with hexane. The polymer was dried at 70° C. for two hours, and polymer weight was determined. Methanolysis was performed by dissolving 3-5 mg of PHA sample by the addition of 1 ml of CHCl3, with methyl benzoate as an internal standard for normalization of the data. […] The solution was then analyzed by gas chromatography as described in the section entitled “In vivo Analysis of Cloned E. coli ilvA Genes”.

Data set [3] is described as follows: Storage stability of purified BktB. The note with it: 10 mM Tris-HCl, pH 7.8, 1 mM DTT, 50% glycerol at −20° C. The format is physicochemical. The method, then: Purified BktB protein was prepared by growing E. coli EE36 transformed with pMON25754 in LB broth containing ampicillin (100μg/ml) overnight at 37° C. Cells were then harvested by centrifugation, and the pellet was resuspended in 50 mM KPi and 5% glycerol, sonicated, and the sonicate centrifuged to remove cellular debris. The cell extract was desalted using a PD-10 column (Pharmacia), and proteins resolved using a Pharmacia FPLC system and MonoQ anion-exchange column (Pharmacia). Buffer A was 10 mM Tris buffer, pH 7.8, plus 1 mM DTT; buffer B was buffer A plus 1 M KCl. The gradient was 0 to 10% B in 10 min, then to 35% B in 40 min. The flow rate was 1 ml/min, and the resolved proteins were collected at the rate of 1 ml/fraction. The BktB protein was found in fractions 20 to 27, with the maximum activity peak at fraction 23. […] The enzyme was stored in 10 mM Tris-HCl, pH 7.8, 1 mM DTT, 50% glycerol at −20° C.

B1: BktB: A. eutrophus β-ketothiolase encoded on pBK6, amino acid sequence SEQ ID NO:11 (protein, listed as Alcaligenes eutrophus)
chain: MTREVVVVSGVRTAIGTFGGSLKDVAPAELGALVVREALARAQVSGDDVGHVVFGNVIQTEPRDMYLGRVAAVNGGVTINAPALTVNRLCGSGLQAIVSAAQTILLGDTDVAIGGGAESMSRAPYLAPAARWGARMGDAGLVDMMLGALHDPFHRIHMGVTAENVAKEYDISRAQQDEAALESHRRASAAIKAGYFKDQIVPVVSKGRKGDVTFDTDEHVRHDATIDDMTKLRPVFVKENGTVTAGNASGLNDAAAAVVMMERAEAERRGLKPLARLVSYGHAGVDPKAMGIGPVPATKIALERAGLQVSDLDVIEANEAFAAQACAVTKALGLDPAKVNPNGSGISLGHPIGATGALITVKALHELNRVQGRYALVTMCIGGGQGIAAIFERI
Regarding B1, the “% Turnover C4 Product” value came out at 1.0% in data set [1] (butyryl-CoA 0.6 mM); 0.6% in data set [1] (butyryl-CoA 1.2 mM); 0.4% in data set [1] (butyryl-CoA 2.4 mM); 4.2% in data set [1] (propionyl-CoA 0 mM); 1.8% in data set [1] (propionyl-CoA 0.6 mM); 1.0% in data set [1] (propionyl-CoA 1.2 mM). Moreover, the “% Turnover C4 Product” value in data set [1] (propionyl-CoA 2.4 mM) amounted to 0.7%. For the same molecule, the “% Turnover C6 Product” value in data set [1] (butyryl-CoA 0.6 mM) was 4.9%; in data set [1] (butyryl-CoA 1.2 mM), 7.3%; in data set [1] (butyryl-CoA 2.4 mM) it was 7.9%. Moreover, the “% Turnover C5 Product” value in data set [1] (propionyl-CoA 0.6 mM) was 13.2%; in data set [1] (propionyl-CoA 1.2 mM) it was 15.6%; in data set [1] (propionyl-CoA 2.4 mM), 17.8%. The “greater percentage of the C5 monomer than cells expressing the PhbA β-ketothiolase” value in data set [2] is given as “five-to-six-fold”. The “stability of activity on storage” value in data set [3] is recorded as “Activity remained constant for a minimum of two months”.
